What was measured:
[1] = tested on: human patient exhibiting a Cholesterol Related Disorder; assay: Treatment of cholesterol related disorders (Example 16); type: in vivo; details: therapeutically effective amount
Excerpt: At periodic times during the treatment, the patient is monitored to determine whether the symptoms of the disorder have subsided.

[2] = tested on: patients from four studies described in Examples 22-25; assay: Aggregate data of the studies of Examples 22-25; type: in vivo, human
LDLR in HepG2 cells = assay: LDLR levels with statin and ABP in HepG2 cells (immunoblot); type: cell-based, human; details: HepG2 and HepG2-PCSK9 cells, with mevinolin, 48 hours
Experimental: HepG2 cells were seeded in DMEM with 10% fetal bovine serum (FBS) and grown to ˜90% confluence. The cells were treated with indicated amounts of mevinolin (a statin, Sigma) and PCSK9 ABPs (FIGS. 12A-12C) in DMEM with 3% FBS for 48 hours. Total cell lysates were prepared. […] of total proteins were separated by gel electrophoresis and transferred to PVDF membrane. Immunoblots were performed using rabbit anti-human LDL receptor antibody (Fitzgerald) or rabbit anti-human b-actin antibody. The enhanced chemiluminescent results are shown in the top panels of FIGS. 12A-12C. The intensity of the bands were quantified by ImageJ software and normalized by b-actin. The relative levels of LDLR are shown in the lower panels of FIGS. 12A-12C.

[3] = target: D374Y PCSK9 binding to LDLR (Homo sapiens, UniProt Q8NBP7, D374Y); assay: Large scale receptor ligand blocking screen and functional classification of ABPs; details: functional assays of the screening
Experimental: To screen for the antibodies that block PCSK9 binding to LDLR an assay was developed using the D374Y PCSK9 mutant. […] The following protocol was employed in the receptor ligand blocking screen: Costar 3702 medium binding 384 well plates (Corning Life Sciences) were employed in the screen. The plates were coated with goat anti-LDLR (R&D Cat #AF2148) at 2 μg/ml in 1×PBS/0.05% Azide at a volume of 40 μl/well. The plates were incubated at 4° C. overnight. The plates were then washed using a Titertek plate washer (Titertek, Huntsville, Ala.). A 3-cycle wash was performed. The plates were blocked with 90 μl of 1×PBS/1% milk and incubated approximately 30 minutes at room temperature. The plates were then washed using the Titertek plate washer. A 3-cycle wash was performed. The capture sample was LDLR (R&D, Cat #2148LD/CF), and was added at 0.4 μg/ml in 1×PBS/1% milk/10 mM Ca^2+ at a volume of 40 μl/well. The plates were then incubated for 1 hour and 10 minutes at room temperature. Contemporaneously, 20 ng/ml of biotinylated human D374Y PCSK9 was incubated with 15 micro liters of hybridoma exhaust supernatant in Nunc polypropylene plates and the exhaust supernatant concentration was diluted 1:5. The plates were then pre-incubated for about 1 hour and 30 minutes at room temperature. Next, the plates were washed using the Titertek plate washer operated using a 3-cycle wash. 50 μl/well of the pre-incubated mixture was transferred onto the LDLR coated ELISA plates and incubated for 1 hour at room temperature. To detect LDLR-bound b-PCSK9, 40 μl/well streptavidin HRP at 500 ng/ml in assay diluent was added to the plates. The plates were incubated for 1 hour at room temperature. The plates were again washed using a Titertek plate washer. A 3-cycle wash was performed. Finally, 40 μl/well of One-step TMB (Neogen, Lexington, Ky.) was added to the plate and was quenched with 40 μl/well of 1N hydrochloric acid after 30 minutes at room temperature. OD's were read immediately at 450 nm using a Titertek plate reader.
The receptor ligand assay was then repeated using the mutant enzyme on the 384 member subset of neutralizers identified in the first large scale receptor ligand inhibition assay. The same protocol was employed in the screen of the 384 member blocker subset assay as was done in the large scale receptor ligand blocking screen.
Limiting dilution was used to isolate a manageable number of clones from each line. […] The isolated clones were each expanded in 50-100 ml of hybridoma media and allowed to grow to exhaustion, (i.e., less than about 10% cell viability). The concentration and potency of the antibodies to PCSK9 in the supernatants of those cultures were determined by ELISA and by in vitro functional testing, as described herein.

B1: 21B12: human anti-PCSK9 monoclonal antibody; light/heavy variable region SEQ ID NO 23/49 (antibody, listed as Homo sapiens, V domains shown)
VH: QVQLVQSGAEVKKPGASVKVSCKASGYTLTSYGISWVRQAPGQGLEWMGWVSFYNGNTNYAQKLQGRGTMTTDPSTSTAYMELRSLRSDDTAVYYCARGYGMDVWGQGTTVTVSS
VL: QSALTQPASVSGSPGQSITISCTGTSSDVGGYNSVSWYQQHPGKAPKLMIYEVSNRPSGVSNRFSGSKSGNTASLTISGLQAEDEADYYCNSYTSTSMVFGGGTKLTVL
serum cholesterol levels vs patients that are not treated [1]: reduced serum cholesterol levels
reduction from baseline in LDL-C at week 12 ([2]; 140 mg Q2W): ~60%
reduction from baseline in LDL-C at week 12 ([2]; 420 mg Q4W): ~56%
dose dependent reduction from baseline in ApoB ([2]; p values <0.001): 36-53%
dose dependent reduction from baseline in non-HDL-C ([2]; p values <0.001): 36-53%
dose dependent reduction from baseline in total cholesterol ([2]; p values <0.001): 25-37%
LDLR levels compared with the 25A7.1 ABP (a non-neutralizer) (LDLR in HepG2 cells): greater increase in LDLR levels
neutralizing ability (blocking PCSK9/LDLR) [3]: neutralizing
